This is an account of results in US20040120954A1, “Regulation of mt1-mmp activity” (priority 2000, published 2004).

One assay addresses T1, MT1-F/NGFR (Homo sapiens, UniProt P04629+P50281).
T1 construct: expressed in transfected cells; host or cells: COS1 cells (pSG5 vector)
As to the kind of experiment: Dimer formation of MT1-F/NGFR chimera on the cell surface (anti-phosphotyrosine PY20 Western blotting, co-transfected COS1 cells). It is filed as cell-based. As to conditions: for competition in the dimer formation of MT1-F/NGFR (PY20 band intensity): COS1 cells co-transfected with MT1-F/NGFR and the construct (FIG. 23). The procedure:
Cell lysate samples were subjected to separation on SDS-PAGE, followed by a transfer of the proteins in the gel to nitrocellulose membranes (Hybond-ECL, Amersham Pharmacia Biotech, Inc.). After blocking with a solution of 10% skim milk dissolved in TBS (20 mM Tris-HCl buffer, pH 7.5 containing 150 mM NaCl), the membrane was exposed to a monoclonal anti-FLAG M2 antibody (3 μg/ml) for detecting FLAG-tagged MT1-MMP and its mutants. In order to visualize the immunoreactive bands, the membrane was further exposed to an alkaline phosphatase-conjugated goat anti-mouse IgG antibody. For the purpose of detecting a phosphotyrosine residue in chimera proteins, a monoclonal anti-phosphotyrosine antibody, PY20 (1 μg/ml) was used.
Cell lysates were subjected to SDS/PAGE, followed by a transfer of the proteins to nitrocellulose membranes (Hybond-ECL, Amersham Pharmacia Biotech, Inc.). MT1-MMP, MT1Cat, MT1-MT4PEX and MT1-F/NGFR were detected with a polyclonal anti-CAT antibody (1:2000), while MT1-MMP, MT1PEX and MT1-F/NGFR with an anti-PEX antibody (222-1D8, 0.5 μg/ml). FLAG-tagged MT1-MMP and its mutants were detected with an anti-FLAG M2 antibody (3 μg/ml). Chimera proteins containing a phosphotyrosine residue were detected with a monoclonal mouse anti-phosphotyrosine antibody, PY20 (ICN Biochemicals, Inc., OH, USA; 1 μg/ml). Immunoreactive bands were visualized with an alkaline phosphatase-conjugated goat anti-mouse IgG or anti-rabbit IgG (Sigma).
NGFR forms a dimer through binding to its ligand. Subsequently, tyrosine residues in the cytoplasmic domain are trans-phosphorylated by its tyrosine kinase (Jing, S. et al., Neuron, 9: 1067-1079, 1992; Lemmon, M. A. et al., Trends Biochem. Sci., 19: 459-463, 1994).
By utilizing the above principle, a chimeric protein is first constructed consisting of the ectodomain of MT1-MMP and the transmembrane (TM) and cytoplasmic (CP) domains of NGFR (FIG. 8) in order to test for direct complex formation. When the ectodomain of this chimeric protein forms a homophilic complex in a similar manner, tyrosine residues in the cytoplasmic domain will be phosphorylated.
It is investigated whether co-expression of MT1PEX-F and MT1-F competes in the dimer formation of MT1-F/NGFR or not. For the test, the expression plasmids for MT1-F/NGFR and MT1PEX-F were co-transfected into COS1 cells.
Next, the expression plasmids for MT1-F/NGFR and FLAG-tagged MT1PEX (MT1PEX-F), MT1Cat (MT1Cat-F), or MT1-F were co-transfected to investigate if the dimer formation of the chimera could be disrupted or not.

The next assay concerns the target T2, MT1-F (Homo sapiens, UniProt P50281).
T2 construct: expressed in transfected cells
As to the kind of experiment: 125I-labeled TIMP-2 binding assay on transfected CHO-K1 cells. The procedure:
FIG. 12: The efficacies of MT1PEX-F on the proteolytic activity and TIMP-2 binding ability of MT1-F expressed on a cell surface are shown. As is shown in FIG. 12 through FIG. 14, CHO-K1 cells were transfected with the expression vectors for MT1-F, MT1PEX-F or MT1Cat-F, or a vector alone (Mock). The cells were then treated with trypsin, and seeded on DQ™-gelatin coated cover slips for proteolytic activity tests (FIG. 13) and in 24-well plates for TIMP-2 binding assays (FIG. 12) and for proMMP-2 activation (FIG. 14). Results are all from the same transfection experiment. […]
Next, to determine if MT1PEX-F affects the catalytic activity of MT1-MMP on the cell surface or not, tests for gelatin degrading activity and binding capacity to TIMP-2 were conducted using cells transfected in the same incubator. […] Transfected cells on the DQ™ gelatin-coated cover slip as shown in FIG. 13 were incubated in a medium at 37° C. for 18 hrs, and the generated fluorescence was analyzed using confocal microscopy. […] MT1-MMP specific binding was calculated by subtracting the datum obtained in the presence of BB-94 (50 μM) from each datum derived from the corresponding experiments. […] DQ™ gelatin is a fluorescence-quenched gelatin, which fluoresces upon proteolytic cleavage. […]

Take “MT1Cat-F: PEX-deleted FLAG-tagged MT1-MMP (Δ Ile318-Gly535)”: in the assay with MT1-F/NGFR, the “competition in the dimer formation of MT1-F/NGFR (PY20 band intensity)” value is given as “did not decrease the intensity of the band”. For the same substance, the “TIMP-2 binding capacity as compared to the cells bearing MT1-F” value with MT1-F (CHO-K1 cells expressing the mutant (FIG. 12)) is given as “equivalent TIMP-2 binding capacity”.

“MT1PEX-F: Catalytic domain-deleted FLAG-tagged MT1-MMP (Δ Tyr112-Pro312), expressed by transfection”: in the assay with MT1-F/NGFR (COS1 cells co-expressing MT1-F/NGFR and Rac1DA (FIG. 24)), the “decrease of phosphotyrosine signal” value was 43%. Also, in the assay with MT1-F/NGFR (COS1 cells co-transfected with MT1-F/NGFR and MT1PEX-F at indicated DNA ratio (FIG. 10)), the “phosphorylation of MT1-F/NGFR” value is on record as “inhibited depending on the expression level”. In addition, in the assay with MT1-F/NGFR, the “competition in the dimer formation of MT1-F/NGFR (PY20 band intensity)” value was “effectively competed”. Besides, the “inhibition of the phosphorylation of MT1-F/NGFR” value with MT1-F/NGFR (COS1 cells co-transfected with MT1-F/NGFR, increasing levels of MT1PEX-F expression, PY20 band intensity (FIG. 10)) is recorded as not below 90%. In addition, in the assay with MT1-F (CHO-K1 cells co-transfected with MT1-F, 25 nM 125I-TIMP-2, 0° C., 1 hr, BB-94 (50 μM) background subtracted (FIG. 12)), the “decrease in TIMP-2 binding on the cell surface as compared with MT1-F alone” value is 37%.
